{"source": "paper PMC12513289", "about": "(The Journal of Biological Chemistry, 2025)", "proteins": {"B1": {"name": "human AsnRS R534∗ (ΔR534-P548), N-terminal 6xHis tag (enzyme, UniProt O43776 1-533, looked up)", "chain": "MVLAELYVSDREGSDATGDGTKEKPFKTGLKALMTVGKEPFPTIYVDSQKENERWNVISKSQLKNIKKMWHREQMKSESREKKEAEDSLRREKNLEEAKKITIKNDPSLPEPKCVKIGALEGYRGQRVKVFGWVHRLRRQGKNLMFLVLRDGTGYLQCVLADELCQCYNGVLLSTESSVAVYGMLNLTPKGKQAPGGHELSCDFWELIGLAPAGGADNLINEESDVDVQLNNRHMMIRGENMSKILKARSMVTRCFRDHFFDRGYYEVTPPTLVQTQVEGGATLFKLDYFGEEAFLTQSSQLYLETCLPALGDVFCIAQSYRAEQSRTRRHLAEYTHVEAECPFLTFDDLLNRLEDLVCDVVDRILKSPAGSIVHELNPNFQPPKRPFKRMNYSDAIVWLKEHDVKKEDGTFYEFGEDIPEAPERLMTDTINEPILLCRFPVEIKSFYMQRCPEDSRLTESVDVLMPNVGEIVGGSMRIFDSEEILAGYKREGIDPTPYYWYTDQRKYGTCPHGGYGLGLERFLTWILNRYHI", "notes": "also called His-R534∗; R534∗ mutant; source: E. coli BL21(DE3) or BL21 ClearColi, purified (Ni-NTA, heparin, SEC); not shown: His6, N-terminal, kept"}}, "biological_target": "the molecule itself", "test": "mass photometry, R534* homodimer"}
{"protein": "B1", "values": [{"measurement": "Kd", "value": 54.4, "unit": "nM"}]}
